Experimental data published in US20150231240A1, “ANTI-C16ORF54 ANTIBODIES AND METHODS OF USE THEREOF” (priority 2012, published 2015).

T1: human C16orf54 (Homo sapiens, UniProt Q6UWD8)
T1 construct: expressed in transfected cells; host or cells: murine sarcoma cells (D42M1-huC16orf54)
T1 sequence (Q6UWD8 1-224): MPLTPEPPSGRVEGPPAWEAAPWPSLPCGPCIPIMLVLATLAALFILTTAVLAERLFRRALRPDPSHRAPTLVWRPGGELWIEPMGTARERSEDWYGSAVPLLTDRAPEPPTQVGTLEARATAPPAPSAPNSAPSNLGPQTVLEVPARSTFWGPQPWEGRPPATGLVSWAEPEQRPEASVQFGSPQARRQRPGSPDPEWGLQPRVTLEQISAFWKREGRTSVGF

T2: N-terminal 32 amino acids of huC16orf54 (Homo sapiens, UniProt Q6UWD8)
T2 sequence (Q6UWD8 1-32 limits assumed): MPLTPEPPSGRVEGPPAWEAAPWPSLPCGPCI


Assays:
C16orf54 ECD peptides = experiment: Peptide crossblocking (Table 36); assay type: binding
human C16orf54 = target: T1, human C16orf54; experiment: Flow cytometry reactivity with sarcoma cells expressing human C16orf54 (fold change over isotype); assay type: binding; details: for binding to human C16orf54 (flow cytometry): sarcoma cells expressing human C16orf54, 10 μg/ml antibody
Method: Anti-C16orf54 antibodies which bound to human C16orf54 were tested for their reactivity with human C16orf54 and their crossreactivity with C16orf54 from cynomolgous monkeys (cyno C16orf54) using flow cytometry. Sarcoma cells transfected with and expressing human C16orf54 or cyno C16orf54 were washed with PBS with 0.1% BSA, incubated with FcX receptor blocking solution (BioLegend) for 15 minutes, incubated with 10 μg/ml of anti-C16orf54 antibody for 1 hour at 4° C., washed twice with PBS with 0.1% BSA, incubated with 20 μg/ml of R-Phycoerythrin-AffiniPure F(ab′)2 Fragment Goat Anti-Mouse IgG, Fcγ Fragment Specific (Jackson ImmunoResearch) for 30 minutes at 4° C., washed twice with PBS with 0.1% BSA, incubated with the viability dye TO-PRO-3 iodide (Life Technologies), and immediately analyzed on a MACSQuant Analyzer instrument (Miltenyi). For each cell line and anti-C16orf54 antibody, a fold change was derived by dividing the median fluorescence intensity for Phycoerythrin in the live cell population for the anti-C16orf54 antibody by the median fluorescence intensity for Phycoerythrin in the live cell population for the IgG isotype control antibody.

[1] = tested on: human erythroid and myeloid progenitors (normal human bone marrow); experiment: Colony forming unit (CFU) progenitor cell assays; assay type: cell-based; details: for BFU-E / CFU-E / CFU-GEMM / CFU-GM / Total CFC / Total Erythroid: colonies after 14 days; for direct effect on colony number or colony size of bone marrow progenitors: 0.032-100 μg/ml added directly into the methylcellulose matrix, 14 days; for indirect effect on colony number or colony size of progenitors: 0.032-100 μg/ml, 24 hours liquid culture, then methylcellulose matrix
Method: Colony forming unit (CFU) assays were performed to establish if there is binding of anti-C16orf54 antibodies to various progenitor cells including: CFU-E: colony forming unit erythroid (erythroid colony forming cells); BFU-E: burst forming unit erythroid (earliest known erythroid precursor cells); CFU-GM: colony forming unit granulocyte/macrophage (granulocyte-macrophage colony forming cells); and CFU-GEMM: colony forming unit granulocyte, erythrocyte, monocyte/macrophage, megakaryocyte (most primitive colony-forming cells). […] Clogenic progenitors of the human erythroid and myeloid lineages were set up in methylcellulose-based medium. All test antibodies and reagents were added to the medium at indicated concentrations. Triplicate cultures were initiated for each condition. Following 14 days in culture myeloid and erythroid colonies were assessed microscopically and scored. For these assays, anti-C16orf54 antibodies were evaluated for their direct and indirect effects on human erythroid and myeloid progenitor proliferation. […] Indirect effects on progenitors were assessed by incubating the cells with these antibodies in a liquid culture for 24 hours and subsequent culture of these cells in the methylcellulose matrix.

[2] = tested on: human C16orf54 extracellular domain peptides; experiment: C16orf54 peptide ELISA, human extracellular domain peptides; assay type: binding; details: human, cyno, or mouse extracellular domain peptides, not told apart; 10 μg/ml antibody
Method: Anti-C16orf54 antibodies which bind to human C16orf54, including antibodies that are crossreactive with cyno C16orf54, were tested for their binding to various peptides derived from C16orf54 in a peptide ELISA. A 384-well high binding black microplate (Greiner) was incubated with 2 μg/ml of protein (human, cyno, or mouse extracellular domain peptides) for 16 hours, incubated for 1 hr with a blocking buffer (PBS with 5% Fetal Bovine Serum), washed four times with TBS with Tween, incubated for 1 hour with 10 μg/ml of anti-C16orf54 antibody, washed four times with TBS with Tween, incubated for 1 hour with 10 μg/ml of Peroxidase-AffiniPure Goat Anti-Mouse IgG, Fcγ Fragment Specific (Jackson ImmunoResearch), washed four times with TBS with Tween, and peroxidase was detected with a luminometer (Molecular Devices) upon addition of SuperSignal® ELISA Pico Chemiluminescent Substrate (Thermo Scientific). The luminescence signal was determined.

[3] = target: T2, N-terminal 32 amino acids of huC16orf54; experiment: Off-rate screen of hybridoma supernatants on OctetQK384 (biolayer interferometry); assay type: binding; details: calculated off-rate
Method: Eight anti-huC16orf54 monoclonal antibodies were further screened for binding and subsequent off-rate analysis using the OctetQK384® sytem (ForteBio). Hybridoma supernatants were screened for association to and dissocation from streptavidin sensors coated with the N-terminal 32 amino acids of huC16orf54 coupled to biotin, and the calculated offrates (kdis) are shown in Table 31. Cloned hybridomas with […] off-rates were carried forward for antibody purification.

Molecule | Peptide crossblocking (C16orf54 ECD peptides) | binding to C16orf54-expressing cells (dual binders) (human C16orf54) | binding to human C16orf54 (flow cytometry) (human C16orf54) | BFU-E ([1]; 0.032 μg/ml) | CFU-E ([1]; 0.032 μg/ml) | CFU-GM ([1]; 0.032 μg/ml) | Total CFC ([1]; 0.032 μg/ml) | Total Erythroid ([1]; 0.032 μg/ml) | BFU-E ([1]; 0.8 μg/ml) | CFU-E ([1]; 0.8 μg/ml) | CFU-GM ([1]; 0.8 μg/ml) | Total CFC ([1]; 0.8 μg/ml) | Total Erythroid ([1]; 0.8 μg/ml) | BFU-E ([1]; 4 μg/ml) | CFU-E ([1]; 4 μg/ml) | CFU-GM ([1]; 4 μg/ml) | Total CFC ([1]; 4 μg/ml) | Total Erythroid ([1]; 4 μg/ml) | BFU-E ([1]; 20 μg/ml) | CFU-E ([1]; 20 μg/ml) | other results
R29-7-1C: murine anti-C16orf54 monoclonal antibody, IgG2a; VH SEQ ID NO: 8, VL SEQ ID NO: 10 (antibody, V domains shown, R29-7-1C heavy chain variable region; R29-7-1C light chain variable region) VH: MRVLILLWLFTAFPGILSDVQLQESGPGLVKPSQSLSLTCTVTGYSITSDYAWNWIRQFPGNKLEWMGYISYSGSIRYNPSLKSRISITRDTSKNQFFLQLNSVTTEDTATYYCAREKYDNYYYAMDYWGQGTSVTVSS VL: MDSQAQVLMLLLLWVSGTCGDIVMSQSPSSLAVSVGEKVTLSCKSSQNLLYSTNQKNYLAWYQQKPGQSPKLLIYWASTRESGVPDRFTGSGSGTDFTLTISSVKAEDLAVYYCQQYYSYRTFGGGTKLEIK | none | bind to C16orf54-expressing cells | bind human C16orf54 | 31 +/− 2 | 8 +/− 2 | 45 +/− 3 | 83 +/− 4 | 38 +/− 4 | 31 +/− 2 | 8 +/− 2 | 42 +/− 4 | 82 +/− 3 | 39 +/− 4 | 32 +/− 2 | 7 +/− 2 | 44 +/− 4 | 82 +/− 6 | 38 +/− 3 | 28 +/− 5 | 8 +/− 2 | CFU-GEMM ([1]; 0.032 μg/ml): 1 +/− 1; CFU-GEMM ([1]; 0.8 μg/ml): 1 +/− 1; CFU-GEMM ([1]; 20 μg/ml): 1 +/− 1; CFU-GM ([1]; 20 μg/ml): 40 +/− 5; Total CFC ([1]; 20 μg/ml): 76 +/− 8; Total Erythroid ([1]; 20 μg/ml): 36 +/− 4; BFU-E ([1]; 100 μg/ml): 30 +/− 3; CFU-E ([1]; 100 μg/ml): 8 +/− 3; CFU-GEMM ([1]; 100 μg/ml): 1 +/− 1; CFU-GM ([1]; 100 μg/ml): 44 +/− 4; Total CFC ([1]; 100 μg/ml): 82 +/− 4; Total Erythroid ([1]; 100 μg/ml): 38 +/− 4; direct effect on colony number or colony size of bone marrow progenitors [1]: no effect on colony number or colony size of bone marrow progenitors; indirect effect on colony number or colony size of progenitors [1]: no effect on colony number or colony size; binding to peptides derived from the extracellular domain of C16orf54 (peptide ELISA) [2]: bind to the various peptides derived from the extracellular domain (ECD) of C16orf54; kdis [3]: 0.0102 s⁻¹
R29-67-7A: murine anti-C16orf54 monoclonal antibody, IgG2a; VH SEQ ID NO: 12, VL SEQ ID NO: 14 (antibody, V domains shown, R29-67-7A heavy chain variable region; R29-67-7A light chain variable region) VH: MRVLILLWLFTAFPGILSDVQLQESGPGLVKPSQSLSLTCTVTGYSITSDYAWNWIRQFPGNKLEWMGYINYSGRTRYNPSLNSRISLTRDTSTNQFFLQLNSVTTEDTATYYCARENYDYEFYAMDYWGQGTSVTVSS VL: MESQAQVLMLLLLWVSGTCGDIVMSQSPSSLAVSVGEKVTMSCKSSQNLLYSSNQKNYLAWYQQKPGQSPKLLIYWASTRESGVPDRFTGSGSGTDFTLTISSVKAEDLAVYYCQQYYIYRTFGGGTKLEIK | aa1-31, aa1-15 | bind to C16orf54-expressing cells | bind human C16orf54 | 28 +/− 2 | 7 +/− 2 | 39 +/− 3 | 74 +/− 4 | 35 +/− 1 | 32 +/− 3 | 7 +/− 2 | 43 +/− 5 | 81 +/− 6 | 38 +/− 5 | 30 +/− 2 | 9 +/− 2 | 43 +/− 2 | 81 +/− 1 | 39 +/− 3 | 33 +/− 3 | 6 +/− 2 | CFU-GEMM ([1]; 20 μg/ml): 1 +/− 1; CFU-GM ([1]; 20 μg/ml): 40 +/− 1; Total CFC ([1]; 20 μg/ml): 79 +/− 4; Total Erythroid ([1]; 20 μg/ml): 39 +/− 3; BFU-E ([1]; 100 μg/ml): 32 +/− 2; CFU-E ([1]; 100 μg/ml): 7 +/− 2; CFU-GM ([1]; 100 μg/ml): 43 +/− 6; Total CFC ([1]; 100 μg/ml): 83 +/− 5; Total Erythroid ([1]; 100 μg/ml): 39 +/− 3; direct effect on colony number or colony size of bone marrow progenitors [1]: no effect on colony number or colony size of bone marrow progenitors; indirect effect on colony number or colony size of progenitors [1]: no effect on colony number or colony size; binding to peptides derived from the extracellular domain of C16orf54 (peptide ELISA) [2]: bind to the various peptides derived from the extracellular domain (ECD) of C16orf54; kdis [3]: 0.00845 s⁻¹
